Where two headings read alike, the source gives them in different places.
Experiments:
[1] = target: T1, Human MUC17 ECD4131-his (His-tagged human MUC17 protein extracellular domain fusion protein) (human, UniProt Q685J3 4131-4393); assay: ELISA on coated human MUC17 ECD4131-his, OD450
T1 construct: a truncation of the extracellular domain; also called human MUC17-his protein; human MUC17-His
Protocol: (§1) A human MUC17-his protein was diluted with PBS to a final concentration of […] and then added to a 96-well ELISA plate at 50 µL/well. The plate was incubated at 4° C. overnight. The next day, the plate was washed 2 times with PBST, and a blocking buffer [PBS+2% (w/w) BSA] was added for blocking at room temperature for 2 h. The blocking buffer was discarded, and the recombinant antibody and positive and negative control antibody with a starting concentration of 100 nM serially diluted by 3 folds were added at 50 μL/well. After incubation at 37° C. for 1 h, the plate was washed 3 times with PBST. A horseradish peroxidase (HRP)-labeled secondary antibody (purchased from Merck, Cat. No. AP113P) was added for incubation at 37° C. for 1 h, and the plate was washed 5 times with PBST. A TMB substrate was added at 50 μL/well for incubation at room temperature for 10 min, and then a stop solution (1.0 M HCl) was added at 50 µL/well. The OD₄₅₀ nm values were read by an ELISA plate reader (Multimode Plate Reader, EnSight, purchased from Perkin Elmer).

[2] = target: T1, Human MUC17 ECD4131-his (His-tagged …); assay: ELISA on coated human MUC17 ECD4131-his, OD450; remark: listed apart in the source
[3] = target: T1, Human MUC17 ECD4131-his (His-tagged …); assay: ELISA on coated human MUC17 ECD4131-his, OD450; remark: listed apart in the source
Protocol: as §1

[4] = target: T2, human MUC17 on NUGC4 endogenous tumor cells (human, UniProt Q685J3 26-4493); assay: FACS on NUGC4 cells, MFI
Protocol: (§2) Then a complete medium was added to stop the digestion, and the cells were blown into a single cell suspension. After counting, the cells were centrifuged, and the cell pellet was resuspended to 2×10⁶ cells/mL in an FACS buffer (PBS+2% fetal bovine serum), and added to a 96-well FACS reaction plate at 100 µL/well. The plate was centrifuged, and the supernatant was discarded. An antibody sample to be tested (diluted in a 3-fold gradient from a starting concentration of 100 nM) was added at 50 µL/well and uniformly mixed with the cells, and the mixture was incubated at 4° C. for 1 h. […] The results were tested and analyzed by FACS (FACS Canto™, purchased from BD) after the plate was centrifuged and washed 3 times with a PBS buffer and resuspended with 100 μL of PBS. Data analysis was performed by software (FlowJo) to obtain the mean fluorescence intensity (MFI) of the cells. Then, analysis was performed by software (GraphPad Prism8), data were fitted, and EC50 values were calculated. As shown in FIGS. 3A-3B, the recombinant antibodies Lab315-huFc, Lab316-huFc, Lab320-huFc, Lab331-huFc, and Lab332-huFc are all capable of binding specifically to NUGC-4 cells.

[5] = target: T2, human MUC17 on NUGC4 endogenous tumor …; assay: FACS on NUGC4 cells, MFI; remark: listed apart in the source
Protocol: as §2
The preparation of the assay cells and the antibodies to be tested and the assay were performed with reference to Example 3.4. […]

[6] = target: T2, human MUC17 on NUGC4 endogenous tumor …; assay: FACS on NUGC4 cells, MFI; remark: listed apart in the source
Protocol: as §2

B1: 2D11-hIgG1 (antibody, V domains shown)
VH: QVQLVESGGGVVQPGRSLRLSCAASGFTFSNHGMHWVRQAPGKCLEWVAGIWSDASNKYYAEAVKGRFTISRDTSKNTLYLQMNSLRAEDTAVYYCARATYTTGWSYFDYWGQGTLVTVSS
VL: SYELTQSPSVSVSPGQTASITCSGDKLGDKYTSWYQQKPGQSPVLVIYHDRKRPSGIPERFSGSNSGNTATLTISGTQAMDEADYYCQAYDRSTAWVFGCGTKLTVLR
notes: Control antibody from WO2019133961A1, expressed as human IgG1 + kappa; also called 21D11; MUC17 control antibody
- EC50 (read off the curve) [1]: ~6 pM
- EC50 (read off the curve) [2]: ~0.02 nM
- EC50 (read off the curve) [3]: ~0.03 nM
- EC50 (read off the curve) [4]: ~0.1 nM
- EC50 (read off the curve) [5]: ~0.1 nM
- EC50 (read off the curve) [6]: ~0.07 nM

From US20250297030A1 (SHANDONG SIMCERE BIOPHARMACEUTICAL, published 2025)
